Like-named read-outs stand apart in the source and are kept apart here. Blank lines part the entries; values can stand above or below the compound they belong to. *1 amine or outer side, *2 acyl side, *3 side chain or, on linkers, in order; H or OH if unused. Where a SMILES comes first, the peptide text is derived from it. Side-chain parts run from the residue outwards. [ ]: non-standard residue; d: D form. The star is where a group is joined. HSG = histamine succinyl glycyl group, O=C(CCC(=O)NCC(=O)*)NCCc1c[nH]cn1; DOTA = O=C(O)CN1CCN(CC(=O)O)CCN(CC(=O)*)CCN(CC(=O)O)CC1; NH(2-(imidazol-4-yl)ethyl) = c1ncc(CCN*)[nH]1; Suc = O=C(CCC(=O)[*:2])[*:1]
Columns and labels:
[1] = target: somatostatin receptors on AR42J cells (rat); assay: apparent IC50; competition with ^111In(DTPA-octreotide) on AR42J cells, 3 h at RT
somatostatin receptors on AR42J cells (rat), sequence (P30680 whole entry): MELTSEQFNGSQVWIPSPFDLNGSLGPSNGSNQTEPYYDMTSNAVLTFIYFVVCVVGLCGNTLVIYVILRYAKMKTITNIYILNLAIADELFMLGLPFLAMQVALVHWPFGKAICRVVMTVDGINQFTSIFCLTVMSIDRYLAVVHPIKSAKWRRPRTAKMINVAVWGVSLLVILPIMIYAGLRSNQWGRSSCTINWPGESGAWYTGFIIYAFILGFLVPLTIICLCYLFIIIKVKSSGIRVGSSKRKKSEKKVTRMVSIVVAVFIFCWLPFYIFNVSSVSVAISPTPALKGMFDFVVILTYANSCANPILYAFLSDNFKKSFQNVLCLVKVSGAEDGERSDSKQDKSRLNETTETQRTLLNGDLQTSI

[2] = tested on: nude mice bearing LS174T human colonic xenografts; assay: Biodistribution of ^18F-labeled agents with or without TF2 pretargeting; details: not pretargeted
Description: Six-week-old NCr nu-m female nude mice were implanted s.c. with the human colonic cancer cell line, LS174T (ATCC, Manassas, Va.).
Tissues were weighed and counted together with a standard dilution prepared from each of the respective products. Due to the short physical half-life of ^18F, standards were interjected between each group of tissues from each animal. Uptake in the tissues is expressed as the counts per gram divided by the total injected activity to derive the percent-injected dose per gram (% ID/g).

[3] = Stability of ^18F-labeled IMP272 in PBS (reverse phase HPLC); assay type: physicochemical; details: incubated at room temperature with PBS for ~1 hr
Protocol: ^18F-Labeling of IMP272—A 3 μL aliquot of the aluminum stock solution was placed in a REACTI-VIAL™ and mixed with 50 μL ^18F (as received) and 3 μL of the IMP272 solution. […] The remainder of the peptide solution was incubated at room temperature with 150 μL PBS for ˜1 hr and then examined by reverse phase HPLC.

[4] = PET/CT images, region of interest ratios; assay type: in vivo, mice; details: male, BALB/c nude, mouse, iv, total radioactivity, mice with LS174T tumor and inflamed muscle, ^68Ga(IMP288) after TF2
Protocol: (§1) PET images were acquired with an Inveon animal PET/CT scanner (Siemens Preclinical Solutions, Knoxville, Tenn.). PET emission scans were acquired for 15 minutes, preceded by CT scans for anatomical reference (spatial resolution 113 μm, 80 kV, 500 μA, exposure time 300 msec).
(§2) Uptake in the tumor was evaluated quantitatively by drawing regions of interest (ROI), using a 50% threshold of maximum intensity. A region in the abdomen was used as background region.

[5] = tested on: nude BALB/c mice with s.c. LS174T tumors; assay: PET/CT images, region of interest ratios; assay type: in vivo
Protocol: as §1, §2

[6] = Effect of heating on fluorescence of 800CW; assay type: physicochemical; details: NaAc 0.1 M pH 4.5, 1 h at 95° C.
Protocol: To investigate the effect of heating on the fluorescence of 800CW, 5 μg/mL solutions of the dye in NaAc (0.1 M, pH 4.5) were placed in a heating block at 95° C. for 5, 15, 30, or 60 min. Following, samples were cooled down to room temperature, measured in the plate reader, and the fluorescence of each sample was normalized to a non-heated control.

[7] = IRDye800CW irradiations (radiobleaching); assay type: physicochemical
Protocol: To assess the radiosensitivity of 800CW, 5 μg/mL aqueous solution of the dye in 0.1 M NaAc buffer pH 4.5 was prepared and mixed with increasing activities of ^68Ga, ^111In, and ^213Bi (1-20 MBq) for a 310 μL final volume. Radioactive solutions were incubated in 1.5 mL Eppendorf tubes at 4° C. in the dark, and 100 μL aliquots taken at 0.5, 6, and 24 h time points for fluorescence measurement. The effect of volume on 800CW's radiosensitivity was determined by incubating 150, 300, 550,800, or 1050 μL of 5 μg/mL buffered dye solution with 20 MBq of ^68Ga. All fluorescence readings were normalized to non-irradiated controls.

[8] = Radioprotection of 800CW with radical scavengers; assay type: physicochemical; details: for radioprotection of 800CW: 20 MBq of ^68Ga, 0.5, 3 and 6 h exposure
Protocol: The radioprotective effect of three common hydroxyl radical scavengers, ethanol, gentisic acid (GA) and ascorbic acid (AA) was tested. […]

[9] = Stability of Al^18F(IMP467) in human serum or PBS; assay type: in vitro ADME
Protocol: An aliquot of the HLB purified peptide (˜30 μL) was diluted with 200 μL human serum (previously frozen) and placed in the 37° C. HPLC sample chamber. Aliquots were removed at various time points and analyzed by HPLC.
Optimized conditions for ^18F-labeling of IMP467 were identified. These consisted of eluting ^18F^− with commercial sterile saline (pH 5-7), mixing with 20 nmol of AlCl3 and 40 nmol IMP467 in pH 4 acetate buffer in a total volume of 100 μL, heating to 102° C. for 15 min, and performing SPE separation. High-yield (85%) and high specific activity (115 GBq/μmol) were obtained with IMP467 in a single step, 30-min procedure after a simple solid-phase extraction (SPE) separation without the need for HPLC purification. Al^18F(IMP467) was stable in PBS or human serum, with 2% loss of ^18F after incubation in either medium for 6 h at 37° C.

[10] = Stability of ^18F-labeled IMP449 in human serum at 37° C.
Protocol: Three microliters of a 2 mM solution of Al in a pH 4 acetate buffer was mixed with 15 μL, 1.3 mCi of ^18F. […] […] […] Another aliquot was removed after 1 hr and analyzed by HPLC.

[11] = tested on: nude mice bearing Capan-1 human pancreatic cancer xenografts; assay: Biodistribution of radiolabeled Fab′; details: 3 h after injection
Protocol: (§3) Nude mice were inoculated subcutaneously with CaPan-1 human pancreatic adenocarcinoma (ATCC Accession No. HTB-79, Manassas, Va.). When tumors were visible, the animals were injected intravenously with 100 μL of the radiolabeled Fab′. […] The animals were necropsied at 3 h post injection, tissues and tumors removed, weighed, and counted by gamma scintillation, together with standards prepared from the injected products. The data are expressed as percent injected dose per gram.

[12] = tested on: nude mice bearing Capan-1 human pancreatic cancer xenografts; details: mouse, in vivo
Protocol: as §3

CEA = target: T1, CEA (Homo sapiens, UniProt P06731); assay: Immunoreactivity with excess CEA by SE-HPLC; assay type: binding; details: 0.74-GBq run
T1 sequence (P06731 35-676): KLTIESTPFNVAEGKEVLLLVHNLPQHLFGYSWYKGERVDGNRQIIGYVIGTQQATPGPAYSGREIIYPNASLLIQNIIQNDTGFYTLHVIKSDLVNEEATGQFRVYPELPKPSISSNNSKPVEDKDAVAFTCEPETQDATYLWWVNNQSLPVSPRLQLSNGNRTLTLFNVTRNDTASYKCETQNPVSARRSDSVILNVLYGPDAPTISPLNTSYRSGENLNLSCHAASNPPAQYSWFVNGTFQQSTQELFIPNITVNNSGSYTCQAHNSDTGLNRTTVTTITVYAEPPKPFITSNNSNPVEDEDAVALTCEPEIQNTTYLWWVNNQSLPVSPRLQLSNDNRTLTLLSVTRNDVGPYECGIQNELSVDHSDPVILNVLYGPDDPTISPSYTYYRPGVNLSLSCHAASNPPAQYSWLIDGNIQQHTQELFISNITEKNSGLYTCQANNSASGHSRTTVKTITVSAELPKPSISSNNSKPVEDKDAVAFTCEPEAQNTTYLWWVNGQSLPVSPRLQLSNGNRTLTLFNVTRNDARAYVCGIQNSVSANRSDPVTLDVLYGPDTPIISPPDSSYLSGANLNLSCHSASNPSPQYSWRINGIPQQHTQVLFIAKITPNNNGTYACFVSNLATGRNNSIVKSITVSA
Protocol: Immunoreactivity of the purified product was analyzed by adding an excess of CEA and separating on SE-HPLC, comparing to a profile of the product alone. The product was also analyzed by RP-HPLC to assess percent-unbound Al^18F(NOTA-MPAEM).

IC50 [1]: 13 nM
Compound: ^69Ga(IMP466) (peptide)

Compound: [18FH] [^18F, reference compound]
tumor/blood ratio [2]: 6.7±2.7

^18F still attached to the peptide [3]: 42%
^18F unbound [3]: 58%
Compound: DTPA-Gln-Ala-Lys(HSG)-D-Tyr-Lys(HSG)-NH2 [IMP272]

IC50 [1]: 3.6 nM
Compound: Al^19F(IMP466) (peptide)

Compound: NC(=O)[C@@H](CCCCNC(=O)CNC(=O)CCC(=O)NCCc1c[nH]cn1)NC(=O)[C@@H](CCC(=O)O)NC(=O)[C@@H](CCCCNC(=O)CNC(=O)CCC(=O)NCCc1c[nH]cn1)NC(=O)[C@@H](Cc1ccc(O)cc1)NC(=O)CN1CCN(CC(=O)O)CCN(CC(=O)O)CCN(CC(=O)O)CC1 [^68Ga(IMP288), metal not drawn] ({DOTA}-[dY][dK]([Gly-Suc-NH(2-(imidazol-4-yl)ethyl)])[dE][dK]([Gly-Suc-NH(2-(imidazol-4-yl)ethyl)])-NH2)
tissue to tissue ratio at 1 h ([4]; read-out: inflamed muscle-to-background ratio in PET/CT image): 8.9
tissue to tissue ratio at 1 h ([4]; read-out: tumor-to-background ratio in PET/CT image): 48
tumor-to-background ratio in PET image ([5]; TF2 and ^68Ga(IMP288), 1 h, ROI 50% threshold, abdomen as background): 38.2
tumor-to-inflamed tissue ratio in PET/CT image ([5]; mice with LS174T tumor and inflamed muscle, ^68Ga(IMP288) after TF2): 5.4

fluorescent intensity, % of the initial values [6]: 60%
change of 800CW fluorescence on exposure to ^68Ga ([7]; 0.1 M NaAc pH 4.5, 30 min exposure, increasing activities): pronounced dose-dependent decrease
extent of radiobleaching by the three radionuclides, trend ([7]; similar activity level and exposure times): ^68Ga>^111In>^213Bi
Compound: CC1(C)C(/C=C/C2=C(Oc3ccc(S(=O)(=O)O)cc3)C(=C/C=C3/N(CCCCS(=O)(=O)O)c4ccc(S(=O)(=O)[O-])cc4C3(C)C)/CCC2)=[N+](CCCCCC(=O)O)c2ccc(S(=O)(=O)O)cc21 [800CW]

Compound: CCO [EtOH, ethanol]
radioprotection of 800CW [8]: both concentration and exposure time dependent

Compound: C-NETA-succinyl-D-Lys(HSG)-D-Tyr-D-Lys(HSG)-NH2 ({C‑NETA-Suc}-[dK](HSG)-[dY]-[dK](HSG)-NH2) [IMP467]
breakdown of ^18F-labeled peptide in serum ([9]; human serum, 37° C., five hour incubation): no detectable breakdown

IC50 [1]: 6.3 nM
Compound: ^115In(DTPA-octreotide) (peptide)

Compound: NC(=O)[C@@H](CCCCNC(=O)CNC(=O)CCC(=O)NCCc1c[nH]cn1)NC(=O)[C@@H](Cc1ccc(O)cc1)NC(=O)[C@@H](CCCCNC(=O)CNC(=O)CCC(=O)NCCc1c[nH]cn1)NC(=O)CCC(=O)Nc1ccc(CC(CN2CCN(CC(=O)O)CCN(CC(=O)O)CC2)N(CC(=O)O)CC(=O)O)cc1 (stereo partly drawn) [Al^18F(IMP467)]
loss of ^18F ([9]; incubation in PBS or human serum for 6 h at 37° C.): 2%

Compound: C[C@@H](NC(=S)Nc1ccc(CC2CN(CC(=O)O)CCN(CC(=O)O)CCN2CC(=O)O)cc1)C(=O)N[C@H](CCCCNC(=O)CNC(=O)CCC(=O)NCCc1c[nH]cn1)C(=O)N[C@H](Cc1ccc(O)cc1)C(=O)N[C@H](CCCCNC(=O)CNC(=O)CCC(=O)NCCc1c[nH]cn1)C(N)=O (stereo partly drawn) [IMP449, NOTA-benzyl-ITC-D-Ala-D-Lys(HSG)-D-Tyr-D-Lys(HSG)-NH2]
stability in human serum [10]: 76%
stability in human serum ([10]; purified, 37° C., at least one hour): 91%

Compound: O=C1O[C@H]([C@@H](O)CO)C(O)=C1O [AA, ascorbic acid]
radioprotection against ^111In and ^213Bi induced radiobleaching of 800CW ([8]; 0.1% (w/v) AA): effective radioprotection
concentrations that completely preserve 800CW fluorescence ([8]; 20 MBq of ^68Ga, longer radiation exposure): 0.001-10 % (w/v)

Compound: O=C(O)c1cc(O)ccc1O [GA, gentisic acid]
radioprotection of 800CW [8]: both concentration and exposure time dependent

Compound: Al^18F(NOTA-MPAES)-hMN-14 Fab′: Al^18F(NOTA-MPAEM) conjugated to Fab′ of humanized MN-14 anti-CEACAM5 IgG (labetuzumab)
% ID/g Blood [11]: 0.5 ± 0.1 % ID/g
% ID/g Capan-1 tumor [11]: 2.8 ± 0.3 % ID/g
% ID/g Kidney [11]: 216 ± 30.9 % ID/g
% ID/g Lg. Int. [11]: 1.1 ± 0.4 % ID/g
% ID/g Liver [11]: 17.5 ± 3.8 % ID/g
% ID/g Lung [11]: 4.2 ± 1.6 % ID/g
% ID/g Muscle [11]: 0.4 ± 0.1 % ID/g
% ID/g Scapula [11]: 1.6 ± 0.4 % ID/g
% ID/g Sm. Int. [11]: 2.2 ± 0.2 % ID/g
% ID/g Spleen [11]: 11.3 ± 1.6 % ID/g
% ID/g Stomach [11]: 0.6 ± 0.1 % ID/g
T/NT Blood (tumor/blood ratio) [11]: 5.9 ± 1.3
T/NT Kidney [11]: 0.0 ± 0.0
T/NT Lg. Int. [11]: 2.8 ± 0.7
% ID/g Capan-1 tumor ([11]; listed as [Al^18F]-Fab′): 2.8±0.3 % ID/g
T/NT Blood (tumor/blood ratio) ([11]; listed as [Al^18F]-Fab′): 5.9±1.3
T/NT Liver [12]: 0.2 ± 0.04
T/NT Lung [12]: 0.8 ± 0.5
T/NT Muscle [12]: 6.7 ± 1.3
T/NT Scapula [12]: 1.8 ± 0.4
T/NT Sm. Int. [12]: 1.3 ± 0.1
T/NT Spleen [12]: 0.3 ± 0.04
T/NT Stomach [12]: 4.7 ± 1.2
shift of activity on SE-HPLC when excess CEA was added (CEA): all of the activity shifted

From US20160199524A1, “RADIOSENSITIVITY OF FLUOROPHORES AND USE OF RADIOPROTECTIVE AGENTS FOR DUAL-MODALITY IMAGING” (Immunomedics, Inc., priority 2015, published 2016)
